Laboratory results: patent US7449316B2, “UDP-galactose: β-D-galactose-R 4-α-D-galactosyltransferase, α4Gal-T1” (Glycozym APS, priority 2000, dated 2008)
Residue numbers refer to the chain shown, from its start.

T1: α4Gal-T1 (Homo sapiens, UniProt Q9NPC4)
T1 construct: The full coding constructs were assayed with 1% Triton X-100 homogenates of cells; made in house; host or cells: insect cells (High Five), baculovirus vector pVL1393
T1 sequence (Q9NPC4 1-353): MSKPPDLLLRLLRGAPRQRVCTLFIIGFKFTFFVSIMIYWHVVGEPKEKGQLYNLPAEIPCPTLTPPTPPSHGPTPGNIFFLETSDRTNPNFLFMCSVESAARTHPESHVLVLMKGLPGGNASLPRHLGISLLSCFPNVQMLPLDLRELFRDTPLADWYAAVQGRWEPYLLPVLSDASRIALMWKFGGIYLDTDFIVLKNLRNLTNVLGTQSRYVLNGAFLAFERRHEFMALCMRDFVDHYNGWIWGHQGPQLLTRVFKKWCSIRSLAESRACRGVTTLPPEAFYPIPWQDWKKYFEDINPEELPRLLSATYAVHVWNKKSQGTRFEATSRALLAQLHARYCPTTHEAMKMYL

B1: α4Gal-T1^37V: full coding human α4Gal-T1 variant, construct #45 (G109, T548, G903, A987), Val at residue 37 (protein, UniProt Q9NPC4 1-353, looked up)
chain: T1 sequence (Q9NPC4 1-353)
modifications: full-length
B2: α4Gal-T1^183K: full coding α4Gal-T1 from p individuals, construct p#5 (A109, A548, G903, G987), Met183 to Lys (protein, UniProt Q9NPC4 1-353, looked up, variant M183K)
chain: T1 sequence (Q9NPC4 1-353) with M183K
modifications: full-length
notes: full coding α4Gal-T1 from p individuals, construct p#5 (A109, A548, G903, G987), Met183 to Lys

Tests used:
α4Gal-T1 = biological target: T1, α4Gal-T1; assay: Saccharide acceptor substrates tested with α4Gal-T1; format: biochemical; settings: saccharide acceptors, α4Gal-T1 expressed in insect cells
Description: (§1) Full coding constructs were prepared by genomic PCR using primer pair HCRS131 (5′-[…]) (SEQ ID NO:7) and HCRS125 (5′-[…]) (SEQ ID NO:8) and genomic DNA from phenotyped individuals with phenotypes P1+ (#165) and p (#4) (see Table II for sequence). Three different full coding constructs were selected for expression: #67 (A109, T548, G903, G987), #45 (G109, T548, G903, A987), and p#5 (A109, A548, G903, G987). The products were cloned into BamHI and EcoRI sites of pBluescript KS+, and subsequently into the insect cell expression vector pVL1393 (Pharmingen), and sequenced in full. A truncated, secreted construct (amino acid residues 46-353) was prepared using primer pair HCRS124 (5′-[…]) (SEQ ID NO:9) and HCRS125 from a P1+ phenotype individual (#165), and the sequence confirmed as described above. The products were cloned into the expression vector pAcGP67A (Pharmingen). The variants of plasmids pVL-α4Gal-T1-full and pAcGP67-α4Gal-T1-sol were co-transfected with Baculo-Gold™ DNA (Pharmingen), and virus amplified as described previously (Bennett et al., 1996). Standard assays were performed in 50 μl reaction mixtures containing 25 mM Cacodylate (pH 6.5), 10 mM MnCl2, 0.25% Triton X-100, 100 μM UDP-[^14C]Gal (10,000 cpm/nmol) (Amersham), and the indicated concentrations of acceptor substrates (Sigma and Dextra Laboratories Ltd) (see Table I for structures). The full coding constructs were assayed with 1% Triton X-100 homogenates of cells twice washed in phosphate buffered saline or resuspended microsomal fractions.

Namalwa cells = assay: Cell surface P^k/CD77 antigen expression after transient transfection, FACS analysis; format: cell-based, human; settings: transient transfection of Namalwa cells, 48 hours, 1A4 monoclonal antibody
Description: FIG. 7 illustrates cell surface expression of P^k/CD77 antigen in Namalwa cells after transient transfection of α4Gal-T1. Constructs p#5, #45, and #67, as well as empty pDR2 vector were electroporated in Namalwa cells and expression of P^k/CD77 antigen was tested after 48 hours. Cells were labeled with 1A4 monoclonal antibody and GAM-FITC (grey histograms) or with GAM-FITC alone (empty histograms) and analysed with a FACSCalibur flow cytometer.
The three full coding constructs #67, #45, and p#5, were cloned into pDR2 (Clontech, USA). Insert was excised from pBKs with BamHI/XhoI and inserted into the BamHI/SalI sites of pDR2. Transient transfection of 5×10^6 Namalwa cells with 20 μg cDNA was done by double-pulse electroporation using an Easy-cell ject+ (Eurogentec, France). Expression of CD77/P^k antigen was evaluated by FACS analysis on a FACSCalibur (Beckton-Dickinson, USA) using 1A4 monoclonal antibody (Wiels, 1997).

[1] = P^k assay: galactosyltransferase activity with CDH, α4Gal-T1 constructs expressed in insect cells; format: biochemical; settings: full coding constructs in insect (High Five) cells, microsomal fractions, 25 μg CDH, UDP-[14C]Gal, 4 hr, compared to uninfected cells or control construct
Description: (§2) FIG. 4 illustrates expression of full coding Expression of full coding α4Gal-T1 variants in High Five cells. Assays were performed with microsomal fractions, and controls included constructs encoding polypeptide GalNAc-T3 and -T4 (Bennett et al., 1998), as well as a β3GlcNAc-T (Amado et al., 1999). Autoradiography of high performance thin-layer chromatography of reaction products (4 hr) purified by SepPack C-18 columns. Panel A: P^k assay using 25 μg CDH as substrate. Plate was run in chloroform-methanol-water (60/35/8 v/v/v). […] Panel B: P1 assay using 20 μg PG as substrate. Plate was run in chloroform-methanol-water (60/40/10 v/v/v). No specific product was formed with UDP-Gal donor substrate, whereas the β3GlcNAc-T transferred GlcNAc into PG with UDP-GlcNAc.
as §1

[2] = P1 assay: α4Gal-T activity with paragloboside (PG) acceptor; format: biochemical; settings: full coding constructs in insect cells, 20 μg PG, UDP-Gal donor
Description: as §2
Full coding constructs were prepared by genomic PCR using primer pair HCRS131 (5′-[…]) (SEQ ID NO:7) and HCRS125 (5′-[…]) (SEQ ID NO:8) and genomic DNA from phenotyped individuals with phenotypes P1+ (#165) and p (#4) (see Table II for sequence). Three different full coding constructs were selected for expression: #67 (A109, T548, G903, G987), #45 (G109, T548, G903, A987), and p#5 (A109, A548, G903, G987). The products were cloned into BamHI and EcoRI sites of pBluescript KS+, and subsequently into the insect cell expression vector pVL1393 (Pharmingen), and sequenced in full. […]

Molecule | acceptor activity over background (α4Gal-T1) | galactosyltransferase (α4Gal-T) activity with CDH [1] | other results
OC[C@H]1O[C@@H](O[C@H]2[C@H](O)[C@@H](O)C(O)O[C@@H]2CO)[C@H](O)[C@@H](O)[C@H]1O (stereo partly drawn) [lactose] | no significant activity over background values |  | 
N[C@H]1C(O)O[C@H](CO)[C@@H](O[C@@H]2O[C@H](CO)[C@H](O)[C@H](O)[C@H]2O)[C@@H]1O (stereo partly drawn) [lactosamine] | no significant activity over background values |  | 
OC[C@H]1O[C@@H](O[C@H]2[C@H](O)[C@@H](O)[C@H](OCc3ccccc3)O[C@@H]2CO)[C@H](O)[C@@H](O)[C@H]1O [benzyl β-lacto-side] | no significant activity over background values |  | 
B1 |  | marked increase in galactosyltransferase activity | P^k/CD77 expression (Namalwa cells): clearly resulted in P^k/CD77 expression; galactosyltransferase (α4Gal-T) activity with CDH ([1]; listed as #45): resulted in α4Gal-T activity toward CDH; α4Gal-T activity with neolacto-series (paragloboside) glycolipid acceptor (P1 synthase activity) [2]: neither α4Gal-T1^37M or α4Gal-T1^37V constructs conferred α4Gal-T activity
B2 |  | no activity | galactosyltransferase (α4Gal-T) activity with CDH ([1]; listed as #5): no activity above background
